Target: T1, mouse TSLP-His (Sino Biological, product code 51005-M08H) (mouse, UniProt Q9JIE6 20-140)
T1 construct: Bought reagent; also called TSLP (Mouse); not shown: His tag
T1 sequence (looked up): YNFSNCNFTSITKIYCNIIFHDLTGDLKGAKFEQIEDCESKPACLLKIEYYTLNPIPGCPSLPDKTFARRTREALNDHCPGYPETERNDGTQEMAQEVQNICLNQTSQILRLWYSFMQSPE
Assay: ELISA, mouse TSLP-His coated

Binder	binding result
humanized anti-TSLP monoclonal antibody HA-II (antibody, human IgG1, kappa, L234A L235A, V domains shown) VH: QVQLVQSGAEVKKPGASVKVSCKASGYTFTSYWMHWVRQAPGQGLEWIGLIDPSDSDTTYNQKFKGRATLTVDTSTSTAYMELSSLRSEDTAVYYCSRSLDGYFDHWGQGTLVTVSS VL: DIVMTQSPSSLSASVGDRVTITCRASENIYSYLAWYQQKPGKAPKLLVYNARTLAEGVPSRFSGSGSGTDFTLTISSLQPEDFATYYCQHHYGTPWTFGGGTKVEIKR	no binding (tested: 16 µg/ml (highest concentration))
humanized anti-TSLP monoclonal antibody HA-IV (antibody, human IgG1, kappa, L234A L235A) heavy: not shown light: DIVMTQSPSSLSASVGDRVTITCRASENIYSYLAWYQQKPGKAPKLLVYNARTLAEGVPSRFSGSGSGTDFTLTISSLQPEDFATYYCQHHYGTPWTFGGGTKVEIKRTVAAPSVFIFPPSDEQLKSGTASVVCLLNNFYPREAKVQWKVDNALQSGNSQESVTEQDSKDSTYSLSSTLTLSKADYEKHKVYACEVTHQGLSSPVTKSFNRGEC	no binding (tested: 16 µg/ml (highest concentration))
humanized anti-TSLP monoclonal antibody HA-I (antibody, human IgG1, kappa, L234A L235A, V domains shown, also called HA-1; EB070) VH: QVQLVQSGAEVKKPGASVKVSCKASGYTFTSYWMHWVRQAPGQGLEWIGLIDPSDSDTTYNQKFKGRATLTVDTSTSTAYMELSSLRSEDTAVYYCSRSLDGYFDHWGQGTLVTVSS VL: DIVMTQSPSSLSASVGDRVTITCRASENIYSYLAWYQQKPGKSPKLLVYNARTLAEGVPSRFSGSGSGTDFTLTISSLQPEDFATYYCQHHYGTPWTFGGGTKVEIKR	no binding (tested: 16 µg/ml (highest concentration))
humanized anti-TSLP monoclonal antibody HA-III (antibody, human IgG1, kappa, L234A L235A) heavy: not shown light: DIQMTQSPSSLSASVGDRVTITCRASENIYSYLAWYQQKPGKAPKLLVYNARTLAEGVPSRFSGSGSGTDFTLTISSLQPEDFATYYCQHHYGTPWTFGGGTKVEIKRTVAAPSVFIFPPSDEQLKSGTASVVCLLNNFYPREAKVQWKVDNALQSGNSQESVTEQDSKDSTYSLSSTLTLSKADYEKHKVYACEVTHQGLSSPVTKSFNRGEC	no binding (tested: 16 µg/ml (highest concentration))
